Data from publication doi:10.1101/551788.

Target: Tom20.CIB.GFP (not stated | A. thaliana)
Assay: light-induced recruitment to mitochondria

Substance: Cry2(1-531).mCh (from UniProt Q96524 1-531) (domain or fragment)
- half-life of association with the OMM: 6.25 min

Substance: Cry2(1-531).L348F.mCh (from UniProt Q96524 1-531) (domain or fragment)
- half-life of association with the OMM: 32.8 min
